The values below come from publication PMC1351370.

Data set [1] has as its target T1, HIV-1 nucleocapsid protein NC (wild type) (HIV-1 pNL4-3, UniProt P12493 378-432). As to the kind of experiment: competition.
Data set [2] deals with T1, HIV-1 nucleocapsid protein NC (wild …). Description: SPR.
Data set [3] shares this target. Description: tryptophan fluorescence quenching.
Data set [4] shares this target. Description: competition. The source holds these as a separate data set.
The target is the same in data set [5]. As to the kind of experiment: tryptophan fluorescence quenching. This is another data set of the same source.

Like-named read-outs stand apart in the source and are kept apart here.

TGTGTGTGTGTGTGTGTGTG (ssDNA) [(TG)10] gave an IC50 in data set [1] of 37 ± 2.73 nM.

In data set [1], AAAAAAAAAAAAAAAAAAAAAAAAAAAAAA (ssDNA) [(A)30] had an IC50 of 6680 ± 785 nM. This IC50 is about 180-fold higher than that of the molecule before.

For AAAAAAAA (ssDNA) [(A)8], the binding result in data set [2] is on record as “no binding”.

In the case of TGTGTGTG (ssDNA) [(TG)4], the equilibrium dissociation constant (Kd) amounted to 4.7 ± 0.67 nM in data set [3] and 3.4 ± 0.07 nM in data set [5]. Also, in data set [4], the IC50 came out at 264 ± 101 nM.
